Results from the supplement of paper PMC9876800.

System: peptide library, one residue held at a place counted from the S/T acceptor
Assay: relative phosphorylation of the sub-library (ratio to the mean residue at this position); human; higher = residue favoured
Procedure, shortened: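 Human or orthologue kinase constructs, purified and recombinant, were incubated under kinase-specific conditions in 384-well plates with biotinylated degenerate peptide sub-libraries. Each sub-library fixed one residue at one position around a central Ser/Thr. Incubations lasted 90 min with peptides at 50 μM and 50 μM ATP spiked with γ-32P-ATP, after which spots on streptavidin membranes were phosphorimaged and quantified by densitometry. Relative sub-library phosphorylation is a ratio to the mean residue at that position.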

Sequence of TSSK1B, construct: Full length (Q9BXA7 whole entry, looked up): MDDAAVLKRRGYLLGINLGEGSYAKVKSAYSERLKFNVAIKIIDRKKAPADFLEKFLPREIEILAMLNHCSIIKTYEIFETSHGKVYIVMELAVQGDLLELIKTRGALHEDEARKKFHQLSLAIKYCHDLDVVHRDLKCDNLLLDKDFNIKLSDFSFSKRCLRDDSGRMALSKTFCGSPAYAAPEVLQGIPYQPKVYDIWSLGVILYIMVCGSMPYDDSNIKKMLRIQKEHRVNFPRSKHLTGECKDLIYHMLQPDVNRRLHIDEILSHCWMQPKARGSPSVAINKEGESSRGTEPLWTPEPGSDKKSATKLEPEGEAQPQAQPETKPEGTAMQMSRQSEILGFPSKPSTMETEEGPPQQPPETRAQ
Sequence of GRK2, construct: Full length (P25098 whole entry, looked up): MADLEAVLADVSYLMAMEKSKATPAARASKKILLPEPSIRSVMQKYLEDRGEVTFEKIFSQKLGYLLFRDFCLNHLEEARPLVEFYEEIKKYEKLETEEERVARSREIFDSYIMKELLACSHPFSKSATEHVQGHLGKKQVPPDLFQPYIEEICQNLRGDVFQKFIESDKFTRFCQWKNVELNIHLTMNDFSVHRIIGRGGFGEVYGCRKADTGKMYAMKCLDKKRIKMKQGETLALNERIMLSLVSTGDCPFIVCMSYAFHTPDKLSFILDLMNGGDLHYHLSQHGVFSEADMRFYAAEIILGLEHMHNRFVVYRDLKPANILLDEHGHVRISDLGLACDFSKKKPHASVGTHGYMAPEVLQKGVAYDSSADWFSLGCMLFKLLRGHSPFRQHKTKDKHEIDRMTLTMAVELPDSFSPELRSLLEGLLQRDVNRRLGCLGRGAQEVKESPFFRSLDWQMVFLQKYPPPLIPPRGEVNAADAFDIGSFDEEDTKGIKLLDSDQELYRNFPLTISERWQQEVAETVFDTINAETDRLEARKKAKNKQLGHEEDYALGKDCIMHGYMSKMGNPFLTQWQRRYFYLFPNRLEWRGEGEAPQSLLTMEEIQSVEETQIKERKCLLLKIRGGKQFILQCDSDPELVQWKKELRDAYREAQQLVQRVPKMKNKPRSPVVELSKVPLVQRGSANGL

TSSK1B, construct: Full length (from UniProt Q9BXA7)
relative phosphorylation
Conditions | at +1 | at +2 | at +3 | at +4 | at -1 | at -2 | at -3 | at -4 | at -5
A fixed | 0.896 | 1.04 | 0.82 | 0.786 | 1.15 | 1.84 | 0.918 | 1.21 | 1.05
D fixed | 0.619 | 0.465 | 1.55 | 0.621 | 0.453 | 0.495 | 0.378 | 0.625 | 0.389
E fixed | 0.69 | 0.497 | 0.747 | 0.452 | 0.506 | 0.474 | 0.532 | 0.883 | 0.371
F fixed | 1.1 | 0.97 | 1.09 | 1.33 | 0.617 | 0.565 | 0.497 | 0.643 | 0.99
G fixed | 0.884 | 1.4 | 0.809 | 0.639 | 1.08 | 1.2 | 1.08 | 1.29 | 0.635
H fixed | 1.1 | 1.99 | 1.29 | 0.768 | 0.957 | 0.981 | 1.01 | 1.23 | 0.57
I fixed | 0.854 | 1.56 | 0.66 | 2.06 | 0.502 | 0.661 | 0.421 | 0.677 | 1.61
K fixed | 1.43 | 0.385 | 0.945 | 0.621 | 2.08 | 2.53 | 2.55 | 2.11 | 0.612
L fixed | 1.03 | 1.53 | 0.758 | 2.43 | 0.683 | 0.423 | 0.418 | 0.73 | 2.77
M fixed | 1.23 | 1.21 | 0.953 | 1.9 | 0.885 | 0.681 | 0.607 | 1.12 | 1.14
N fixed | 1.05 | 0.881 | 1.92 | 0.793 | 0.98 | 1.22 | 0.887 | 0.889 | 0.477
P fixed | 0.176 | 0.61 | 0.392 | 0.702 | 1.96 | 0.794 | 1.3 | 0.592 | 1.26
Q fixed | 1.38 | 0.997 | 1.07 | 0.683 | 1.17 | 1.29 | 0.858 | 0.864 | 0.783
R fixed | 1.54 | 0.586 | 0.953 | 0.529 | 1.98 | 1.72 | 3.76 | 1.81 | 1.09
V fixed | 0.935 | 1.07 | 0.632 | 1.34 | 0.59 | 1.11 | 0.545 | 0.797 | 1.76
W fixed | 0.893 | 0.845 | 1.56 | 0.719 | 0.601 | 0.401 | 0.465 | 0.73 | 0.734
Y fixed | 1.19 | 0.96 | 0.851 | 0.62 | 0.817 | 0.623 | 0.772 | 0.805 | 0.767
pThr fixed | 0.709 | 0.515 | 0.365 | 0.424 | 0.191 | 0.303 | 0.574 | 0.596 | 0.457
pTyr fixed | 0.793 | 0.437 | 0.381 | 0.396 | 0.445 | 0.326 | 0.424 | 0.432 | 0.65

GRK2, construct: Full length (from UniProt P25098)
relative phosphorylation
Conditions | at +1 | at +2 | at +3 | at +4 | at -1 | at -2 | at -3 | at -4 | at -5
A fixed | 0.812 | 1.17 | 0.782 | 0.874 | 0.876 | 0.822 | 1.03 | 0.901 | 0.914
D fixed | 1.1 | 0.929 | 1.42 | 1.35 | 1.14 | 1.38 | 1.9 | 1.41 | 1.34
E fixed | 1.47 | 0.883 | 1.37 | 1.25 | 1.34 | 3.01 | 2.28 | 1.54 | 1.13
F fixed | 1.27 | 1.18 | 1.13 | 1.02 | 1.02 | 0.961 | 0.768 | 0.915 | 1.14
G fixed | 0.766 | 0.755 | 0.817 | 0.928 | 0.726 | 0.718 | 0.766 | 0.897 | 0.839
H fixed | 0.977 | 1.09 | 1.02 | 1.07 | 1.06 | 0.813 | 0.831 | 0.969 | 0.931
I fixed | 1.03 | 1.18 | 0.892 | 0.892 | 0.862 | 0.724 | 0.732 | 0.847 | 0.898
K fixed | 0.79 | 0.747 | 0.778 | 0.84 | 0.919 | 0.741 | 0.815 | 0.965 | 0.912
L fixed | 0.883 | 0.886 | 1.01 | 0.935 | 0.928 | 0.832 | 0.742 | 0.899 | 0.88
M fixed | 1.08 | 0.965 | 0.981 | 0.975 | 0.971 | 0.872 | 0.8 | 0.951 | 0.931
N fixed | 0.879 | 0.969 | 0.996 | 1.07 | 1.04 | 0.926 | 0.924 | 0.99 | 0.95
P fixed | 0.791 | 0.627 | 0.765 | 0.926 | 1.24 | 0.931 | 0.864 | 0.975 | 0.896
Q fixed | 1.12 | 0.872 | 0.939 | 0.994 | 0.978 | 0.928 | 0.889 | 0.944 | 0.91
R fixed | 0.838 | 0.768 | 0.791 | 0.843 | 0.979 | 0.974 | 1.43 | 0.998 | 1.04
V fixed | 1.15 | 1.37 | 0.855 | 0.854 | 0.911 | 0.701 | 0.665 | 0.813 | 0.918
W fixed | 1.04 | 1.3 | 1.25 | 1.18 | 0.876 | 0.832 | 0.789 | 1.06 | 1.19
Y fixed | 1.01 | 1.31 | 1.22 | 0.998 | 1.12 | 0.843 | 0.787 | 0.932 | 1.18
pThr fixed | 7.25 | 1.18 | 1.22 | 1.95 | 1.18 | 3.63 | 3.44 | 2.09 | 1.27
pTyr fixed | 2.37 | 1.57 | 1.47 | 1.62 | 2.11 | 14.3 | 3.56 | 2.58 | 1.57
